# Where no end group is shown, it is not given here.
# T1: PKC-ε (endogenous, IMR-32 lysate) (human, UniProt Q02156 1-737)
# T1 construct: Band 1 and Band 2 (alternate splicing variants, not identified further) are kept under one molecule; the band is named in the assay field of each row; also called PKC-epsilon; PKC-ε Band 1
# T1 sequence (looked up): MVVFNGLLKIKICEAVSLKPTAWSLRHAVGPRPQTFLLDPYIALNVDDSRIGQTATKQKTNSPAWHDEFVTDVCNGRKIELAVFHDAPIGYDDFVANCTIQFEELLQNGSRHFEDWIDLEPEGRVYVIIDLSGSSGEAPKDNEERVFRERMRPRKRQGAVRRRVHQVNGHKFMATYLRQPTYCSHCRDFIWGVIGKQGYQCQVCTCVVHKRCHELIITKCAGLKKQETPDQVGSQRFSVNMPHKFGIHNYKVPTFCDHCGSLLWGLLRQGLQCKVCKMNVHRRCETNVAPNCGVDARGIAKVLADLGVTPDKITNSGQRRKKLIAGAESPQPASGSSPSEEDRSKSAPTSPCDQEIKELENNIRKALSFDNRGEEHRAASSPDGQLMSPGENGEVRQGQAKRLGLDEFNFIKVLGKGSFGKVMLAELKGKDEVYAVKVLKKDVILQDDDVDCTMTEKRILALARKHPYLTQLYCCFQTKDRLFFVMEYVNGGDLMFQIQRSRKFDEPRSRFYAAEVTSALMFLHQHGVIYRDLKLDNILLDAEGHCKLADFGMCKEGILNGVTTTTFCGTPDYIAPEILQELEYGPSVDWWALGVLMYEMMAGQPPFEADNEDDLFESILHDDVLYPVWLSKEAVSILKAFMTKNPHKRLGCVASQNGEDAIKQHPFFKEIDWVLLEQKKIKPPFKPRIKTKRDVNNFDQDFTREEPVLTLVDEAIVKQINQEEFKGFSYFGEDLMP
# B1: PRE 11 (peptide)
# peptide: Ac-RDAQNLIGISI-NH2
# notes: also called peptide PRE 11
# B2: PRE 12 (peptide)
# peptide: Ac-KDAQNLI-NH2
# notes: Ac-KDAQNLI-NH2; also called peptide PRE 12
# B3: PRE 13 (peptide)
# peptide: Ac-RDAQNLI-NH2
# notes: Ac-RDAQNLI-NH2; also called peptide PRE 13
# B4: PRE 10 (peptide)
# peptide: Ac-ISIGILNQADK-NH2
# notes: also called peptide PRE 10
# B5: PRE 1 (peptide)
# peptide: RRKKGGKDFVVKR
# notes: also called peptide PRE 1; peptide recognition element 1
# B6: PRE 6 (peptide)
# peptide: Ac-KDANQLIGISI-NH2
# notes: also called peptide PRE 6
# B7: PRE 2 (peptide)
# peptide: KDAQNLIGISL-NH2
# notes: also called peptide PRE 2
# Target: T2, PKC-α (purified isoform) (Homo sapiens (Human), UniProt P17252 2-672)
# T2 construct: also called purified PKC-alpha; commercially purified PKC-alpha
# Test: competitive ELISA, coated purified PKC-α, vs anti-PKC α (SC-208); PRE 50 µM
# Procedure: (§1) Greiner 96 well ELISA plates were coated with the appropriate PKC isoform diluted in PBSN (PBS with Calcium/Magnesium+0.05% Sodium azide w/w). 50 μL/well at 250 ng/mL was used. Control wells contained PBSN only. Plates were incubated overnight at 4° C.
# (§2) The plates were washed 3 times with 200 μL of dH₂O per well, then 100 μL of blocking solution was added per well and the plate incubated for 1 h at 37° C. The washing steps with dH₂O were repeated and 50 μL of the appropriate PRE solution (PRE stock solution [20 mM in DMSO] diluted in PBSN) was added and the plate incubated for 1 h at room temperature.
# (§3) 50 μL of 1:1000 dilution of Alkaline Phosphatase (AP) conjugated antibody (anti-rabbit for all except zeta, which was anti-goat) was then added and the plate incubated for 1 h at room temperature. Washing with dH₂O was then repeated. Finally, 100 μL of pNPP solution in pNPP buffer (2 mM MgCl₂, 100 mM Sodium bicarbonate in water, pH 9.8) was added to all wells and incubated for 8 minutes for α, βI, βII ε, and ζ, or for 15-20 mins for δ (until sufficient coloration is observed). The reaction was stopped by addition of Stop solution (2N NaOH) and the absorbance at 405 nm was read on a Galaxy Plate reader.
row,"relative binding capacity (100-%n, DMSO subtracted) [%]",Binder
1,0,B1
2,3.29,B2
3,0,B3
4,0,B4
5,0.69,B5
6,0,B6

# Target: T3, PKC-δ (purified isoform)
# T3 construct: also called PKC-delta
# Test: competitive ELISA, coated purified PKC-δ, vs anti-PKC δ (SC-213); PRE 50 µM
# Procedure: as §1, §2, §3
# T3 sequence (Q05655 whole entry, stated change not applied, canonical isoform): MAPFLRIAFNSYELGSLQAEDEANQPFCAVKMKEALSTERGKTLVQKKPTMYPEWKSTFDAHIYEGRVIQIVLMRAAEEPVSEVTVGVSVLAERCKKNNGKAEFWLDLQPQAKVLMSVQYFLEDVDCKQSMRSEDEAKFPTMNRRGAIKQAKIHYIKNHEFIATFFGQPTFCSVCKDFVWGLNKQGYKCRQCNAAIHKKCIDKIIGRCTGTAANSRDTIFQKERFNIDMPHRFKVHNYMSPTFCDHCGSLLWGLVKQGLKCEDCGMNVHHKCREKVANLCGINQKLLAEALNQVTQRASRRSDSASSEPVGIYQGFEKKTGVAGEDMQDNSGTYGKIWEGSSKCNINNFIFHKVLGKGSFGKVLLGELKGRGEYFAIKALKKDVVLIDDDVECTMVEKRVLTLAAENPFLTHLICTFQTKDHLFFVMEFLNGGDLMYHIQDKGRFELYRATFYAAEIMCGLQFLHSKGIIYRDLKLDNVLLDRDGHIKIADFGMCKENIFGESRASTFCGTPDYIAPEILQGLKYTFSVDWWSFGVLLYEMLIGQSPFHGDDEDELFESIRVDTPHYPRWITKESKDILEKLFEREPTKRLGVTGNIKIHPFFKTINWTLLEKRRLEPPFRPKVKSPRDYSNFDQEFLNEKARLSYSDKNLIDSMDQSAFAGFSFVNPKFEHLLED
row,"relative binding capacity (100-%n, DMSO subtracted) [%]",Binder
1,34.1,B1
2,2.26,B2
3,0,B3
4,0,B4
5,35.7,B5
6,17.5,B6

# Target: T2, PKC-α (purified isoform)
# Test: competitive ELISA, coated purified PKC-α, vs anti-PKC α (SC-208); PRE 100 µM
# Procedure: as §1, §2, §3
row,"relative binding capacity (100-%n, DMSO subtracted) [%]",Binder
1,5.96,B1
2,5.16,B2
3,0,B3
4,0,B4
5,0,B5
6,0,B6

# Target: T2, PKC-α (purified isoform)
# Test: competitive ELISA, coated purified PKC-α, vs anti-PKC α (SC-208); PRE 200 µM
# Procedure: as §1, §2, §3
row,"relative binding capacity (100-%n, DMSO subtracted) [%]",Binder
1,13.3,B1
2,0,B2
3,0,B3
4,0,B4
5,2.1,B5
6,0,B6

# Target: T3, PKC-δ (purified isoform)
# Test: competitive ELISA, coated purified PKC-δ, vs anti-PKC δ (SC-213); PRE 100 µM
# Procedure: as §1, §2, §3
row,"relative binding capacity (100-%n, DMSO subtracted) [%]",Binder
1,21.5,B1
2,1.02,B2
3,0.79,B3
4,0,B4
5,45.2,B5
6,13.2,B6

# Target: T3, PKC-δ (purified isoform)
# Test: competitive ELISA, coated purified PKC-δ, vs anti-PKC δ (SC-213); PRE 200 µM
# Procedure: as §1, §2, §3
row,"relative binding capacity (100-%n, DMSO subtracted) [%]",Binder
1,18.7,B1
2,23.5,B2
3,17.9,B3
4,9.47,B4
5,49.4,B5
6,14,B6

# Target: T4, PKC-βI (purified isoform) (Homo sapiens (Human), UniProt P05771 2-671)
# T4 construct: also called PKC-beta I; PKC beta 1
# Test: competitive ELISA, coated purified PKC-βI, vs anti-PKC βI (SC-209); PRE 50 µM
# Procedure: as §1, §2, §3
# T4 sequence (P05771 2-671 limits assumed): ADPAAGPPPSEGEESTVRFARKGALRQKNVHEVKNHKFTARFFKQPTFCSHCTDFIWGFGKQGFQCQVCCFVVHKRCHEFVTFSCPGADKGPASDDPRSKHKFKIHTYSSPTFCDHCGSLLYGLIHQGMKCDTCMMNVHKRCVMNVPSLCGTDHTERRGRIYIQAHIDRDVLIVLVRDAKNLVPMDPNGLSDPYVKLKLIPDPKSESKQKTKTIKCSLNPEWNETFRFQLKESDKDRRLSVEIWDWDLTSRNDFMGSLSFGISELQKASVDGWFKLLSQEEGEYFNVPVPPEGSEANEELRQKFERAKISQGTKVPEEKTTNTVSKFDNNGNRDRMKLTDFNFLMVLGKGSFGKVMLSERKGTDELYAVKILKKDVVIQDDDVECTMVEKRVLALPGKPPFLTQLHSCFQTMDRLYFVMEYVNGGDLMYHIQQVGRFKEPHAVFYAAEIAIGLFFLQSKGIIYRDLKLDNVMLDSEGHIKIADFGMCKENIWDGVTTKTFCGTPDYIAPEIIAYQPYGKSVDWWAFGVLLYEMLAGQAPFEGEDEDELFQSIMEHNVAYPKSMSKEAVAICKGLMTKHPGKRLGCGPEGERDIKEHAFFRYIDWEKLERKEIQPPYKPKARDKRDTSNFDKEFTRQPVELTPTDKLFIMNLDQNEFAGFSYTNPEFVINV
row,"relative binding capacity (100-%n, DMSO subtracted) [%]",Binder
1,9.86,B1
2,0.79,B2
3,0,B3
4,3.77,B4
5,19.8,B5
6,0,B6

# Target: T4, PKC-βI (purified isoform)
# Test: competitive ELISA, coated purified PKC-βI, vs anti-PKC βI (SC-209); PRE 100 µM
# Procedure: as §1, §2, §3
row,"relative binding capacity (100-%n, DMSO subtracted) [%]",Binder
1,14.2,B1
2,0,B2
3,0,B3
4,4.35,B4
5,13.9,B5
6,7.93,B6

# Target: T4, PKC-βI (purified isoform)
# Test: competitive ELISA, coated purified PKC-βI, vs anti-PKC βI (SC-209); PRE 200 µM
# Procedure: as §1, §2, §3
row,"relative binding capacity (100-%n, DMSO subtracted) [%]",Binder
1,12.5,B1
2,0,B2
3,0,B3
4,0,B4
5,13.4,B5
6,6.14,B6

# Target: T5, PKC-βII (purified isoform) (Homo sapiens (Human), UniProt P05771 2-621)
# T5 construct: also called PKC-beta II; PKC beta 2
# Test: competitive ELISA, coated purified PKC-βII, vs anti-PKC βII (SC-210); PRE 50 µM
# Procedure: as §1, §2, §3
# T5 sequence (P05771 other isoform, or with tags, fused parts or gaps limits assumed): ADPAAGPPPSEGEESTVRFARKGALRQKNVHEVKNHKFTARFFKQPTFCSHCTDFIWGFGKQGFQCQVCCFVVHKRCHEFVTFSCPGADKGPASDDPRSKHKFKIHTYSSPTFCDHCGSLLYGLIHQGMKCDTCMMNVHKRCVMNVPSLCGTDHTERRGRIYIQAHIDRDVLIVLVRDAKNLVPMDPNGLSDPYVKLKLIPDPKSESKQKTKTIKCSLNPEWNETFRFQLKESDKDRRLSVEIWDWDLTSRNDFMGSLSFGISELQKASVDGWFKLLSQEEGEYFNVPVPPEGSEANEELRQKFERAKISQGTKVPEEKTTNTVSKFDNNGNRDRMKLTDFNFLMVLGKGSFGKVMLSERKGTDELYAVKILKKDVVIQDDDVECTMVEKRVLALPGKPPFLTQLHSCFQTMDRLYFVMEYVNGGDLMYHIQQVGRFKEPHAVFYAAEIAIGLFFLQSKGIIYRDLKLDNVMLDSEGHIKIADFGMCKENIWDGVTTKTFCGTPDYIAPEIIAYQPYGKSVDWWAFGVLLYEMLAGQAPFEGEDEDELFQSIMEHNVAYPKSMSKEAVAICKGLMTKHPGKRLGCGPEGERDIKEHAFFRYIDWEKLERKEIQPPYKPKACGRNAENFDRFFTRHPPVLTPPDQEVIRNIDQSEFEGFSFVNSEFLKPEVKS
row,"relative binding capacity (100-%n, DMSO subtracted) [%]",Binder
1,7.14,B1
2,4.55,B2
3,0,B3
4,0,B4
5,0,B5
6,0.08,B6

# Target: T5, PKC-βII (purified isoform)
# Test: competitive ELISA, coated purified PKC-βII, vs anti-PKC βII (SC-210); PRE 100 µM
# Procedure: as §1, §2, §3
row,"relative binding capacity (100-%n, DMSO subtracted) [%]",Binder
1,11,B1
2,0,B2
3,1.63,B3
4,0,B4
5,0,B5
6,0,B6

# Target: T5, PKC-βII (purified isoform)
# Test: competitive ELISA, coated purified PKC-βII, vs anti-PKC βII (SC-210); PRE 200 µM
# Procedure: as §1, §2, §3
row,"relative binding capacity (100-%n, DMSO subtracted) [%]",Binder
1,6.4,B1
2,0,B2
3,0,B3
4,0,B4
5,0,B5
6,0,B6

# Target: T1, PKC-ε (endogenous, IMR-32 lysate)
# Test: WB competition Protocol B, IMR-32 extract, vs anti-PKC-ε Ab; PKC-ε Band 1; 20 µg peptide
# Procedure: (§4) The ability of the peptides PRE 2 and PRE 3 (see Table 4) to interfere with the binding of a PKC-α-specific polyclonal antibody (Santa Cruz Biotechnology, Inc.) to PKC-α was determined using a modified version of the protocol outlined above in which the test peptide was added directly to the cell extract prior to electrophoresis at a concentration of either 5× or 15× the concentration of the protein applied to each well of the gel for the Western blots (20 μg).
# (§5) Peptides PRE 2, PRE 3 and PRE 4 (see Table 4) were tested for their ability to interfere with the binding of isoform-specific polyclonal antibodies (Santa Cruz Biotechnology, Inc.) to […] using the general protocol described in Example 3. Two bands, representing alternate splicing variants of PKC-ε, were identified on the Western blot using this anti-PKC-ε antibody.
Band Intensity,Inhibition (%),Relative Intensity (%),Binder
323,23.4,76.6,B7

# Target: T1, PKC-ε (endogenous, IMR-32 lysate)
# Test: WB competition Protocol B, IMR-32 extract, vs anti-PKC-ε Ab; PKC-ε Band 1; 50 µg peptide
# Procedure: as §4, §5
Band Intensity,Inhibition (%),Relative Intensity (%),Binder
0,100,0,B7

# Target: T1, PKC-ε (endogenous, IMR-32 lysate)
# Test: WB competition Protocol B, IMR-32 extract, vs anti-PKC-ε Ab; PKC-ε Band 2; 20 µg peptide
# Procedure: as §4, §5
Band Intensity,Inhibition (%),Relative Intensity (%),Binder
160,38.6,61.4,B7

# Target: T1, PKC-ε (endogenous, IMR-32 lysate)
# Test: WB competition Protocol B, IMR-32 extract, vs anti-PKC-ε Ab; PKC-ε Band 2; 50 µg peptide
# Procedure: as §4, §5
Band Intensity,Inhibition (%),Relative Intensity (%),Binder
0,100,0,B7

# Target: T1, PKC-ε (endogenous, IMR-32 lysate)
# Test: WB competition Protocol B, IMR-32 extract, vs anti-PKC-ε Ab; PKC-ε Band 1; 100 µg peptide
# Procedure: as §4, §5
Band Intensity,Inhibition (%),Relative Intensity (%),Binder
0,100,0,B7

# Target: T1, PKC-ε (endogenous, IMR-32 lysate)
# Test: WB competition Protocol B, IMR-32 extract, vs anti-PKC-ε Ab; PKC-ε Band 2; 100 µg peptide
# Procedure: as §4, §5
Band Intensity,Inhibition (%),Relative Intensity (%),Binder
0,100,0,B7
